Experimental data reported in IntAct's records for PubMed 15064722.

B1: Lipopolysaccharide-induced tumor necrosis factor-alpha factor (Homo sapiens), Q99732 (parent)
chain: MSVPGPYQAATGPSSAPSAPPSYEETVAVNSYYPTPPAPMPGPTTGLVTGPDGKGMNPPSYYTQPAPIPNNNPITVQTVYVQHPITFLDRPIQMCCPSCNKMIVSQLSYNAGALTWLSCGSLCLLGCIAGCCFIPFCVDALQDVDHYCPNCRALLGTYKRL
partner: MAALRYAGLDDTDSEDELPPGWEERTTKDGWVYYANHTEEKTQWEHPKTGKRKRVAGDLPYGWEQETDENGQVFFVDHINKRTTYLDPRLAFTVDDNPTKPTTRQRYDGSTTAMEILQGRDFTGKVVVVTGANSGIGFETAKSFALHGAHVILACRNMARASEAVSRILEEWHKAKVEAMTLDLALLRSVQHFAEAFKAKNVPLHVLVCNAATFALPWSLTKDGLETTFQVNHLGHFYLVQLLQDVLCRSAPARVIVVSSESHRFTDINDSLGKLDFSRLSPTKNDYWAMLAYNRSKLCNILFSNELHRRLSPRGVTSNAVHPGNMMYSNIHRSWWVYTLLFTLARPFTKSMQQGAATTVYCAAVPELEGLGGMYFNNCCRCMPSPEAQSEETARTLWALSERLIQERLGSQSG
B2: WW domain-containing oxidoreductase (Homo sapiens), Q9NZC7 (parent)
chain: B1 partner
B3: WW domain-binding protein 1 (Homo sapiens), Q96G27 (parent)
chain: MARASSGNGSEEAWGALRAPQQQLRELCPGVNNQPYLCESGHCCGETGCCTYYYELWWFWLLWTVLILFSCCCAFRHRRAKLRLQQQQRQREINLLAYHGACHGAGPFPTGSLLDLRFLSTFKPPAYEDVVHRPGTPPPPYTVAPGRPLTASSEQTCCSSSSSCPAHFEGTNVEGVSSHQSAPPHQEGEPGAGVTPASTPPSCRYRRLTGDSGIELCPCPASGEGEPVKEVRVSATLPDLEDYSPCALPPESVPQIFPMGLSSSEGDIP
partner: B1 partner

Variants of: B1
Settings: with wwox_human WWOX

Row | effect of a mutation on the interaction | Variant
1 | decreasing interaction | Y23A
2 | disrupting interaction | Y23A;Y61A

Variants of: B2
Settings: with litaf_human LITAF

Row | effect of a mutation on the interaction | Variant
3 | decreasing interaction | MAALRYAGLDDTDSEDELPPGWEERTTKDGWVYYANHTEEKTQWEHPKTGKRKRVAGDLPYGWEQETDENGQVFFVDHINKRTTALDARLAFTVDDNPTKPTTRQRYDGSTTAMEILQGRDFTGKVVVVTGANSGIGFETAKSFALHGAHVILACRNMARASEAVSRILEEWHKAKVEAMTLDLALLRSVQHFAEAFKAKNVPLHVLVCNAATFALPWSLTKDGLETTFQVNHLGHFYLVQLLQDVLCRSAPARVIVVSSESHRFTDINDSLGKLDFSRLSPTKNDYWAMLAYNRSKLCNILFSNELHRRLSPRGVTSNAVHPGNMMYSNIHRSWWVYTLLFTLARPFTKSMQQGAATTVYCAAVPELEGLGGMYFNNCCRCMPSPEAQSEETARTLWALSERLIQERLGSQSG [Y85A;P88A]
4 | disrupting interaction | MAALRYAGLDDTDSEDELPPGWEERTTKDGWVYYANHTEEKTQFEHAKTGKRKRVAGDLPYGWEQETDENGQVFFVDHINKRTTYLDPRLAFTVDDNPTKPTTRQRYDGSTTAMEILQGRDFTGKVVVVTGANSGIGFETAKSFALHGAHVILACRNMARASEAVSRILEEWHKAKVEAMTLDLALLRSVQHFAEAFKAKNVPLHVLVCNAATFALPWSLTKDGLETTFQVNHLGHFYLVQLLQDVLCRSAPARVIVVSSESHRFTDINDSLGKLDFSRLSPTKNDYWAMLAYNRSKLCNILFSNELHRRLSPRGVTSNAVHPGNMMYSNIHRSWWVYTLLFTLARPFTKSMQQGAATTVYCAAVPELEGLGGMYFNNCCRCMPSPEAQSEETARTLWALSERLIQERLGSQSG [W44F;P47A]

Variants of: B3
Settings: with wwox_human WWOX

Row | effect of a mutation on the interaction | Variant
5 | disrupting interaction | MARASSGNGSEEAWGALRAPQQQLRELCPGVNNQPYLCESGHCCGETGCCTYYYELWWFWLLWTVLILFSCCCAFRHRRAKLRLQQQQRQREINLLAYHGACHGAGPFPTGSLLDLRFLSTFKPPAYEDVVHRPGTPPPPATVAPGRPLTASSEQTCCSSSSSCPAHFEGTNVEGVSSHQSAPPHQEGEPGAGVTPASTPPSCRYRRLTGDSGIELCPCPASGEGEPVKEVRVSATLPDLEDYSPCALPPESVPQIFPMGLSSSEGDIP [Y141A]
